Like-named read-outs stand apart in the source and are kept apart here.

Broadly, the EC50 is the concentration needed to bring the measured effect to its halfway point. A low value points to higher potency in that assay. Usually Kd stands for the concentration at which binding is half-saturated. Low readings indicate a tighter complex, high ones a looser complex. In general, koff refers to a measure of how fast the partners let go of each other. The kon is a measure of how fast the partners come together. A low value points to slow association. Broadly, the IC50 is the concentration that inhibits the measured activity by half. Read a high IC50 as lower potency.

Experiment [1] addresses T1, Human PD-1 expressed on CHO-K1 cells (CHO-K1/hPD-1) (human, UniProt Q15116 25-288).
T1 construct: whole, on cells; also called CHO-K1 cells overexpressing human PD-1
As to the kind of experiment: FACS, CHO-K1/hPD-1 cells. A digest of the protocol:
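CHO-K1 cells overexpressing human or cynomolgus PD-1 were incubated 1 h at 4 °C with antigen-binding proteins: 8-11 concentrations, 5-fold dilutions, top final 100 nM or 300 nM, hIgG control. Binding was detected with Alexa Fluor 488 anti-human IgG (30 min, 4 °C) and read by flow cytometry.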

Experiment [2] concerns the target T1, Human PD-1 expressed on CHO-K1 cells …. As to the kind of experiment: FACS, CHO-K1/hPD-1 cells. This is another data set of the same source.
Experiment [3] addresses T2, Human PD-1 protein with histidine and avi tags (ACRO Biosystems, PD1-H82E4) (human, UniProt Q15116 25-167).
T2 construct: Captured on streptavidin (SA) sensors in the BLI assay; not shown: histidine and avi tags
The experiment is described as follows: BLI (Octet Red96e), PD-1 captured on SA sensor, 1:1 local fit. On the procedure:
Human PD-1 proteins with histidine and avi tags were purchased from the manufacturer ACRO Biosystems (Cat#: PD1-H82E4), and the assay buffer was 1× kinetics buffer (diluted from 10× kinetics buffer (ForteBio, Cat#: 18-1105)) for kinetic assay and dilution of antigens and antibodies. The binding kinetics between the antigen and the antibody was analyzed by the biolayer interferometry (BLI) technique using an Octet molecular interaction analyzer (ForteBio, model: Octet Red96e).
When the binding kinetics between the antigen and the antibody was determined, the rotation speed of the sensor was set at 1000 rpm/min. The eight SA sensors placed in a column were first equilibrated in an assay buffer for 10 min and then used to capture PD-1 at a capture height of 0.5 nm. Thereafter, the SA sensors were equilibrated in the assay buffer for 100 s, and then were associated with each antibody diluted to a single concentration and with a row of blank buffer wells for 180 s, followed by dissociation for 600 s. A new column of SA sensors were used in each cycle.
When data analysis was performed using Octet Data Analysis software (Fortebio, version 11.0), the reference signals were subtracted by a single reference mode (reference well), the data were fitted by a “1:1 Local fitting” method, and the kinetic parameters of the binding of the antigen to the antibody were calculated to obtain kon (1/Ms) values, kdis (1/s) values and KD (M) values.
A general note: Biolayer interferometry detects binding as a change in optical thickness at a sensor tip.

For experiment [4], the target named is T1, Human PD-1 expressed on CHO-K1 cells …. As to the kind of experiment: FACS blocking of biotin-labeled human PD-L1 binding to CHO-K1-hPD-1 cells.

T1 sequence (Q15116 25-288): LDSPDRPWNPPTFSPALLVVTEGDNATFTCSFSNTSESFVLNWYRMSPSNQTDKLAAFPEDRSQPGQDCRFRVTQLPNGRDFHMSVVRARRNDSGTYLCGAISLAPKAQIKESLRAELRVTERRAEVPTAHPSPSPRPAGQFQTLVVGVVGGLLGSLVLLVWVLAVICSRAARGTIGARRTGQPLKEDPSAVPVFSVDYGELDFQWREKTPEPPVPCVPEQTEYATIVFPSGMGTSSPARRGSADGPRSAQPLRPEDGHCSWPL
T2 sequence (Q15116 25-167 limits assumed): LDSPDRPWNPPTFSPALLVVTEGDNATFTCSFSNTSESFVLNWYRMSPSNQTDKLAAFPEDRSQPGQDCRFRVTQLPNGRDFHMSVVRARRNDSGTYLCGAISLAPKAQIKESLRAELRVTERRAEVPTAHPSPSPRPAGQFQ

B1: PR002481 (antibody, human IgG1, V domains shown)
VH: EVQLVETGGGLIQPGGSLRLSCAASGFNVSSHYMSWVRQAPGKGREWVSIIDGGGSTYYADSVKGRFTISRDNSKNRLYLQMNSLRAEDTAMYYCARATAVAEKNGYNYPFNYWGQGTLVTVSS
notes: Heavy-chain-only antibody (HCAb), human IgG1 Fc; two heavy chains, no light chain; also called R4004P556D1; anti-PD1 R4004P556D1 HCAb hG1
Regarding B1, in experiment [1], the EC50 is 8.94 nM and the “MFI Maximum” value was determined as 950000. In experiment [2], the EC50 turned out to be 8.18 nM and the “Maximum (MFI)” value came to 2.75e+06. Besides, in experiment [3], the Kd amounted to 77 nM, the koff was 0.000768 s⁻¹ and the kon came to 9970 M⁻¹ s⁻¹. In addition, in experiment [4], the IC50 stood at 8.86 nM and the “Maximum inhibition rate (%)” value stood at 103%.
